Consider 25 molecules from patent US20230158141A1 (YAFEI SHANGHAI BIOLOG MEDICINE SCIENCE AND TECHNOLOGY, published 2023).

The target in the assay is T1, IL-10R1-Fc (UniProt Q13651 22-235, limits assumed).
T1 sequence (looked up): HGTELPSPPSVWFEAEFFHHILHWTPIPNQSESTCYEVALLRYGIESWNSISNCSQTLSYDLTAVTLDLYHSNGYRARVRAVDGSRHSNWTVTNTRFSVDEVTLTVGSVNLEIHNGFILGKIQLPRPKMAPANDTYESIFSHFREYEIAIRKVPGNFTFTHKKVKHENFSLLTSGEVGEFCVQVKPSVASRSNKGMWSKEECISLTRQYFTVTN
Briefly: ELISA, IL-10R1-Fc coated. Background: ELISA stands for enzyme-linked immunosorbent assay.

B1: IL-10 Leu23Cys-R4-6 (ligand, human, UniProt P22301 19-178, looked up)
chain: SPGQGTQSENSCTHFPGNLPNMCRDLRDAFSRVKTFFQMKDQLDNLLLKESLLEDFKGYLGCQALSEMIQFYLEEVMPQAENQDPDIKAHVNSLGENLKTLRLRLRRCHRFLPCENKSKAVEQVKNAFNKLQEKGIYKAMSEFDIFINYIEAYMTMKIRN
modifications: R4-6 on Cys 23
notes: mature
As for B1, the “Binding recovery (>60%)” value turned out to be 101%.

B2: IL-10 Lys117Cys-R4-7 (ligand, human, UniProt P22301 19-178, looked up)
chain: SPGQGTQSENSCTHFPGNLPNMLRDLRDAFSRVKTFFQMKDQLDNLLLKESLLEDFKGYLGCQALSEMIQFYLEEVMPQAENQDPDIKAHVNSLGENLKTLRLRLRRCHRFLPCENCSKAVEQVKNAFNKLQEKGIYKAMSEFDIFINYIEAYMTMKIRN
modifications: R4-7 on Cys 117
notes: mature
Regarding B2, the “Binding recovery (>60%)” value was found to be 117%.

B3: IL-10 Lys138Cys-R4-7 (ligand, human, UniProt P22301 19-178, looked up)
chain: SPGQGTQSENSCTHFPGNLPNMLRDLRDAFSRVKTFFQMKDQLDNLLLKESLLEDFKGYLGCQALSEMIQFYLEEVMPQAENQDPDIKAHVNSLGENLKTLRLRLRRCHRFLPCENKSKAVEQVKNAFNKLQEKGIYCAMSEFDIFINYIEAYMTMKIRN
modifications: R4-7 on Cys 138
notes: mature
Turning to B3, the “Binding recovery (>60%)” value was determined as 97.6%.

B4: IL-10 Leu26Cys-S48 (ligand, human, UniProt P22301 19-178, looked up)
chain: SPGQGTQSENSCTHFPGNLPNMLRDCRDAFSRVKTFFQMKDQLDNLLLKESLLEDFKGYLGCQALSEMIQFYLEEVMPQAENQDPDIKAHVNSLGENLKTLRLRLRRCHRFLPCENKSKAVEQVKNAFNKLQEKGIYKAMSEFDIFINYIEAYMTMKIRN
modifications: S48 on Cys 26
notes: mature
Regarding B4, the “Decreased fold of binding to ligand after Conjugating with S48” value (from here on “Decreased fold of binding to ligand”) came out at 3 fold.

B5: IL-10 Leu65Cys-R4-6 (ligand, human, UniProt P22301 19-178, looked up)
chain: SPGQGTQSENSCTHFPGNLPNMLRDLRDAFSRVKTFFQMKDQLDNLLLKESLLEDFKGYLGCQACSEMIQFYLEEVMPQAENQDPDIKAHVNSLGENLKTLRLRLRRCHRFLPCENKSKAVEQVKNAFNKLQEKGIYKAMSEFDIFINYIEAYMTMKIRN
modifications: R4-6 on Cys 65
notes: mature
In the case of B5, the “Binding recovery (>60%)” value was 92.3%.

B6: IL-10 Leu94Cys-R4-6 (ligand, human, UniProt P22301 19-178, looked up)
chain: SPGQGTQSENSCTHFPGNLPNMLRDLRDAFSRVKTFFQMKDQLDNLLLKESLLEDFKGYLGCQALSEMIQFYLEEVMPQAENQDPDIKAHVNSCGENLKTLRLRLRRCHRFLPCENKSKAVEQVKNAFNKLQEKGIYKAMSEFDIFINYIEAYMTMKIRN
modifications: R4-6 on Cys 94
notes: mature
Regarding B6, the “Binding recovery (>60%)” value amounted to 88.4%.

B7: IL-10 Lys49Cys-S48 (ligand, human, UniProt P22301 19-178, looked up)
chain: SPGQGTQSENSCTHFPGNLPNMLRDLRDAFSRVKTFFQMKDQLDNLLLCESLLEDFKGYLGCQALSEMIQFYLEEVMPQAENQDPDIKAHVNSLGENLKTLRLRLRRCHRFLPCENKSKAVEQVKNAFNKLQEKGIYKAMSEFDIFINYIEAYMTMKIRN
modifications: S48 on Cys 49
notes: mature
With B7, the “Decreased fold of binding to ligand” value is 7 fold.

B8: IL-10 Leu131Cys-R4-6 (ligand, human, UniProt P22301 19-178, looked up)
chain: SPGQGTQSENSCTHFPGNLPNMLRDLRDAFSRVKTFFQMKDQLDNLLLKESLLEDFKGYLGCQALSEMIQFYLEEVMPQAENQDPDIKAHVNSLGENLKTLRLRLRRCHRFLPCENKSKAVEQVKNAFNKCQEKGIYKAMSEFDIFINYIEAYMTMKIRN
modifications: R4-6 on Cys 131
notes: mature
Consider B8, for which the “Binding recovery (>60%)” value amounted to 98.5%.

B9: IL-10 Lys117Cys-S48 (ligand, human, UniProt P22301 19-178, looked up)
chain: SPGQGTQSENSCTHFPGNLPNMLRDLRDAFSRVKTFFQMKDQLDNLLLKESLLEDFKGYLGCQALSEMIQFYLEEVMPQAENQDPDIKAHVNSLGENLKTLRLRLRRCHRFLPCENCSKAVEQVKNAFNKLQEKGIYKAMSEFDIFINYIEAYMTMKIRN
modifications: S48 on Cys 117
notes: mature
Turning to B9, the “Decreased fold of binding to ligand” value was determined as 3 fold.

B10: IL-10 Leu48Cys-R4-7 (ligand, human, UniProt P22301 19-178, looked up)
chain: SPGQGTQSENSCTHFPGNLPNMLRDLRDAFSRVKTFFQMKDQLDNLLCKESLLEDFKGYLGCQALSEMIQFYLEEVMPQAENQDPDIKAHVNSLGENLKTLRLRLRRCHRFLPCENKSKAVEQVKNAFNKLQEKGIYKAMSEFDIFINYIEAYMTMKIRN
modifications: R4-7 on Cys 48
notes: mature
For the molecule B10, the “Binding recovery (>60%)” value turned out to be 98.9%.

B11: IL-10 Leu48Cys-S48 (ligand, human, UniProt P22301 19-178, looked up)
chain: SPGQGTQSENSCTHFPGNLPNMLRDLRDAFSRVKTFFQMKDQLDNLLCKESLLEDFKGYLGCQALSEMIQFYLEEVMPQAENQDPDIKAHVNSLGENLKTLRLRLRRCHRFLPCENKSKAVEQVKNAFNKLQEKGIYKAMSEFDIFINYIEAYMTMKIRN
modifications: S48 on Cys 48
notes: mature
As to B11, the “Decreased fold of binding to ligand” value was 3 fold.

B12: IL-10 Leu46Cys-S48 (ligand, human, UniProt P22301 19-178, looked up)
chain: SPGQGTQSENSCTHFPGNLPNMLRDLRDAFSRVKTFFQMKDQLDNCLLKESLLEDFKGYLGCQALSEMIQFYLEEVMPQAENQDPDIKAHVNSLGENLKTLRLRLRRCHRFLPCENKSKAVEQVKNAFNKLQEKGIYKAMSEFDIFINYIEAYMTMKIRN
modifications: S48 on Cys 46
notes: mature
As to B12, the “Decreased fold of binding to ligand” value was determined as 22 fold.

B13: IL-10 Leu53Cys-R4-6 (ligand, human, UniProt P22301 19-178, looked up)
chain: SPGQGTQSENSCTHFPGNLPNMLRDLRDAFSRVKTFFQMKDQLDNLLLKESLCEDFKGYLGCQALSEMIQFYLEEVMPQAENQDPDIKAHVNSLGENLKTLRLRLRRCHRFLPCENKSKAVEQVKNAFNKLQEKGIYKAMSEFDIFINYIEAYMTMKIRN
modifications: R4-6 on Cys 53
notes: mature
As for B13, the “Binding recovery (>60%)” value was found to be 99.4%.

B14: IL-10 Leu131Cys-S48 (ligand, human, UniProt P22301 19-178, looked up)
chain: SPGQGTQSENSCTHFPGNLPNMLRDLRDAFSRVKTFFQMKDQLDNLLLKESLLEDFKGYLGCQALSEMIQFYLEEVMPQAENQDPDIKAHVNSLGENLKTLRLRLRRCHRFLPCENKSKAVEQVKNAFNKCQEKGIYKAMSEFDIFINYIEAYMTMKIRN
modifications: S48 on Cys 131
notes: mature
On to B14, for which the “Decreased fold of binding to ligand” value stood at 5 fold.

B15: IL-10 Lys134Cys-S48 (ligand, human, UniProt P22301 19-178, looked up)
chain: SPGQGTQSENSCTHFPGNLPNMLRDLRDAFSRVKTFFQMKDQLDNLLLKESLLEDFKGYLGCQALSEMIQFYLEEVMPQAENQDPDIKAHVNSLGENLKTLRLRLRRCHRFLPCENKSKAVEQVKNAFNKLQECGIYKAMSEFDIFINYIEAYMTMKIRN
modifications: S48 on Cys 134
notes: mature
Take B15: the “Decreased fold of binding to ligand” value came to 5 fold.

B16: IL-10 Leu53Cys-S48 (ligand, human, UniProt P22301 19-178, looked up)
chain: SPGQGTQSENSCTHFPGNLPNMLRDLRDAFSRVKTFFQMKDQLDNLLLKESLCEDFKGYLGCQALSEMIQFYLEEVMPQAENQDPDIKAHVNSLGENLKTLRLRLRRCHRFLPCENKSKAVEQVKNAFNKLQEKGIYKAMSEFDIFINYIEAYMTMKIRN
modifications: S48 on Cys 53
notes: mature
For the molecule B16, the “Decreased fold of binding to ligand” value turned out to be 3 fold.

B17: IL-10 Leu65Cys-S48 (ligand, human, UniProt P22301 19-178, looked up)
chain: SPGQGTQSENSCTHFPGNLPNMLRDLRDAFSRVKTFFQMKDQLDNLLLKESLLEDFKGYLGCQACSEMIQFYLEEVMPQAENQDPDIKAHVNSLGENLKTLRLRLRRCHRFLPCENKSKAVEQVKNAFNKLQEKGIYKAMSEFDIFINYIEAYMTMKIRN
modifications: S48 on Cys 65
notes: mature
In the case of B17, the “Decreased fold of binding to ligand” value came to 3 fold.

B18: IL-10 Leu105Cys-S48 (ligand, human, UniProt P22301 19-178, looked up)
chain: SPGQGTQSENSCTHFPGNLPNMLRDLRDAFSRVKTFFQMKDQLDNLLLKESLLEDFKGYLGCQALSEMIQFYLEEVMPQAENQDPDIKAHVNSLGENLKTLRLRCRRCHRFLPCENKSKAVEQVKNAFNKLQEKGIYKAMSEFDIFINYIEAYMTMKIRN
modifications: S48 on Cys 105
notes: mature
Take B18: the “Decreased fold of binding to ligand” value was found to be 5 fold.

B19: IL-10 Lys49Cys-R4-5 (ligand, human, UniProt P22301 19-178, looked up)
chain: SPGQGTQSENSCTHFPGNLPNMLRDLRDAFSRVKTFFQMKDQLDNLLLCESLLEDFKGYLGCQALSEMIQFYLEEVMPQAENQDPDIKAHVNSLGENLKTLRLRLRRCHRFLPCENKSKAVEQVKNAFNKLQEKGIYKAMSEFDIFINYIEAYMTMKIRN
modifications: R4-5 on Cys 49
notes: mature
Turning to B19, the “Binding recovery (>60%)” value was 114%.

B20: IL-10 Lys134Cys-R4-7 (ligand, human, UniProt P22301 19-178, looked up)
chain: SPGQGTQSENSCTHFPGNLPNMLRDLRDAFSRVKTFFQMKDQLDNLLLKESLLEDFKGYLGCQALSEMIQFYLEEVMPQAENQDPDIKAHVNSLGENLKTLRLRLRRCHRFLPCENKSKAVEQVKNAFNKLQECGIYKAMSEFDIFINYIEAYMTMKIRN
modifications: R4-7 on Cys 134
notes: mature
On to B20, for which the “Binding recovery (>60%)” value was found to be 128%.

B21: IL-10 Leu46Cys-R4-6 (ligand, human, UniProt P22301 19-178, looked up)
chain: SPGQGTQSENSCTHFPGNLPNMLRDLRDAFSRVKTFFQMKDQLDNCLLKESLLEDFKGYLGCQALSEMIQFYLEEVMPQAENQDPDIKAHVNSLGENLKTLRLRLRRCHRFLPCENKSKAVEQVKNAFNKLQEKGIYKAMSEFDIFINYIEAYMTMKIRN
modifications: R4-6 on Cys 46
notes: mature
For B21, the “Binding recovery (>60%)” value was 89.6%.

B22: IL-10 Leu94Cys-S48 (ligand, human, UniProt P22301 19-178, looked up)
chain: SPGQGTQSENSCTHFPGNLPNMLRDLRDAFSRVKTFFQMKDQLDNLLLKESLLEDFKGYLGCQALSEMIQFYLEEVMPQAENQDPDIKAHVNSCGENLKTLRLRLRRCHRFLPCENKSKAVEQVKNAFNKLQEKGIYKAMSEFDIFINYIEAYMTMKIRN
modifications: S48 on Cys 94
notes: mature
Consider B22, for which the “Decreased fold of binding to ligand” value was found to be 5 fold.

B23: IL-10 Leu105Cys-R4-6 (ligand, human, UniProt P22301 19-178, looked up)
chain: SPGQGTQSENSCTHFPGNLPNMLRDLRDAFSRVKTFFQMKDQLDNLLLKESLLEDFKGYLGCQALSEMIQFYLEEVMPQAENQDPDIKAHVNSLGENLKTLRLRCRRCHRFLPCENKSKAVEQVKNAFNKLQEKGIYKAMSEFDIFINYIEAYMTMKIRN
modifications: R4-6 on Cys 105
notes: mature
Turning to B23, the “Binding recovery (>60%)” value was 92.3%.

B24: IL-10 Leu23Cys-S48 (ligand, human, UniProt P22301 19-178, looked up)
chain: SPGQGTQSENSCTHFPGNLPNMCRDLRDAFSRVKTFFQMKDQLDNLLLKESLLEDFKGYLGCQALSEMIQFYLEEVMPQAENQDPDIKAHVNSLGENLKTLRLRLRRCHRFLPCENKSKAVEQVKNAFNKLQEKGIYKAMSEFDIFINYIEAYMTMKIRN
modifications: S48 on Cys 23
notes: mature
For the molecule B24, the “Decreased fold of binding to ligand” value came out at 12 fold.

B25: IL-10 Leu26Cys-R4-6 (ligand, human, UniProt P22301 19-178, looked up)
chain: SPGQGTQSENSCTHFPGNLPNMLRDCRDAFSRVKTFFQMKDQLDNLLLKESLLEDFKGYLGCQALSEMIQFYLEEVMPQAENQDPDIKAHVNSLGENLKTLRLRLRRCHRFLPCENKSKAVEQVKNAFNKLQEKGIYKAMSEFDIFINYIEAYMTMKIRN
modifications: R4-6 on Cys 26
notes: mature
With B25, the “Binding recovery (>60%)” value worked out at 93.4%.
